{"source": "patent US20250127807A1", "about": "“TREATMENT OF VAGINAL DYSBIOTIC CONDITIONS WITH ASSOCIATED ELEVATED VAGINAL CALPROTECTIN” (priority 2022, published 2025)", "molecules": {"B1": {"name": "lactoferrin (protein, UniProt P24627 20-708, looked up)", "Lactotransferrin": "APRKNVRWCTISQPEWFKCRRWQWRMKKLGAPSITCVRRAFALECIRAIAEKKADAVTLDGGMVFEAGRDPYKLRPVAAEIYGTKESPQTHYYAVAVVKKGSNFQLDQLQGRKSCHTGLGRSAGWIIPMGILRPYLSWTESLEPLQGAVAKFFSASCVPCIDRQAYPNLCQLCKGEGENQCACSSREPYFGYSGAFKCLQDGAGDVAFVKETTVFENLPEKADRDQYELLCLNNSRAPVDAFKECHLAQVPSHAVVARSVDGKEDLIWKLLSKAQEKFGKNKSRSFQLFGSPPGQRDLLFKDSALGFLRIPSKVDSALYLGSRYLTTLKNLRETAEEVKARYTRVVWCAVGPEEQKKCQQWSQQSGQNVTCATASTTDDCIVLVLKGEADALNLDGGYIYTAGKCGLVPVLAENRKSSKHSSLDCVLRPTEGYLAVAVVKKANEGLTWNSLKDKKSCHTAVDRTAGWNIPMGLIVNQTGSCAFDEFFSQSCAPGADPKSRLCALCAGDDQGLDKCVPNSKEKYYGYTGAFRCLAEDVGDVAFVKNDTVWENTNGESTADWAKNLNREDFRLLCLDGTRKPVTEAQSCHLAVAPNHAVVSRSDRAAHVKQVLLHQQALFGKNGKNCPDKFCLFKSETKNLLFNDNTECLAKLGGRPTYEEYLGTEYVTAIANLKKCSTSPLLEACAFLTR"}}, "design": "species or system women", "details": "in vivo", "method": "Elevated levels of calprotectin in BV and in L iners-dominated vaginal microbiomes sequester manganese and zinc, preventing growth of L crispatus its maintenance of a healthy vaginal microbiome. […] Six women each received 3 doses of formulation Z2 separated by 48 hours. Vaginal fluid swabs were collected at t=0, 2, 4, 8, 12, 18, 24, 30, 36, and 42 hours post dose and vaginal fluid concentrations of lactoferrin and mannitol were determined. Average concentrations for the combined 18 dose administrations were obtained based on calculation of Area Under Curve for the locally estimated scatterplot smoothing (Loess) profile of lactoferrin and mannitol concentrations assuming 6 mL volume of distribution. The average concentration of lactoferrin was 33 mg/mL and the average concentrations of mannitol was 20 mg/mL. Average concentrations of both substances correspond to 0.1 fraction or 10% of the administered dose, 300 mg lactoferrin and 195 mg mannitol per Z2 tablet respectively. The 0.1 factor was used to estimate the expected average elemental Mn concentration based on the initial dose per tablet."}
{"molecule": "B1", "values": [{"measurement": "average concentration as fraction of the administered dose", "value": 10, "unit": "%"}]}
